Results reported in patent US20220235344A1, “TRYPSIN VARIANTS WITH IMPROVED ENZYMATIC PROPERTIES” (BIOPHARMA TRANSLATIONSINSTITUT DESSAU FORSCHUNGS GMBH, priority 2018, published 2022).
Where a chain is given by its changes, count along the chain named. Numbers in names are those of the source.

What was measured:
H-RHAK-OH = target: T1, H-RHAK-OH
T1 chain: RHAK

[1] = tested on: Bz-AAYRHAAG-OH (acyl donor) / H-RHAK-OH (acyl acceptor); experiment: Model transamidation reaction, Trypsiligase I and improved variants (Example 1); assay type: biochemical; details: for kcat, HL^app (mkat/mol) / kcat,AL^app, apparent turnover rate for aminolysis (head is formula image MATH:00001) / product yield (%): 250 μM Bz-AAYRHAAG-OH, 500 μM H-RHAK-OH, 0.1 mM ZnCl2, pH 7.8, 30° C.; for product yield (%): 5-10 μM trypsin variant; for kcat, AL^app/kcat, HL^app: 250 μM acyl donor, 500 μM acyl acceptor, 0.1 mM ZnCl2; for Km: constant acyl donor concentration, varying acyl acceptor concentrations
Method: Peptide and reaction analytics were performed using a Waters ACQUITY UPLC System equipped with an RP-C18 column (ACQUITY UPLC BEH 130, C18, 1.7 μm, 2.1×100 mm) at flow rates of 0.5 ml/min. The used mobile phases are: water with 0.05% TFA (A) and acetonitrile with 0.05% TFA (B), respectively. For analysis two methods were applied: Method I: linear gradient of 5-40% B in 5 min, detection at 254 nm.
Quantities of product and educt were calculated from the integrated peak areas.
The measurements of the product yield and the apparent tumover rates for aminolysis (kcat,AL^app) and hydrolysis (kcat,HL^app) were performed by a model transamidation reaction with the following conditions: 250 μM Bz-[…]-OH (acyl donor), 500 μM H-RHAK-OH (acyl acceptor), 5-10 μM trypsin variant, 100 mM HEPES/NaOH pH 7.8, 0.1 mM ZnCl2, 100 mM NaCl, 10 mM CaCl2, T=30° C. KM values for the acyl acceptor were determined by the measurements of apparent turnover rates for aminolysis at constant acyl donor concentration and varying acyl acceptor concentrations.

[2] = tested on: Bz-AAYRHAAG-OH (acyl donor) / H-RHAK-OH (acyl acceptor); experiment: Model transamidation reaction at low substrate concentration, Trypsiligase I, 2G10, 1C11, hybrid (Example 2); assay type: biochemical; details: for product yield (%): 15 μM Bz-AAYRHAAG-OH, 30 μM H-RHAK-OH, 0.5-2.1 μM trypsin variant, 0.1 mM ZnCl2, pH 7.8, 30° C.; for kcat, AL^app (mkat/mol) / kcat, AL^app/kcat, HL^app / kcat, HL^app (mkat/mol): 15 μM acyl donor, 30 μM acyl acceptor, 0.1 mM ZnCl2
Method: FIG. 1: Time course of product formation for a transamidation reaction catalyzed by Trypsiligase I as well as the improved variants 2G10, 1C11 and the hybrid variant. Reaction conditions: 15 μM Bz-[…]-OH (acyl donor), 30 μM H-RHAK-OH (acyl acceptor), 0.5-2.1 μM trypsin variant, 100 mM HEPES/NaOH pH 7.8, 0.1 mM ZnCl2, 100 mM NaCl, 10 mM CaCl2, T=30° C. UPLC analysis: Waters Acquity Ultra Performance LC, C18-column, gradient 5-40% acetonitrile, 4 min, detection at 254 nm.
The measurements of the product yield and the apparent tumover rates for aminolysis (kcat,AL^app) and hydrolysis (kcat,HL^app) were performed by a model transamidation reaction with the following conditions: 15 μM Bz-[…]-OH (acyl donor), 30 μM H-RHAK-OH (acyl acceptor), 0.5-2.1 μM trypsin variant, 100 mM HEPES/NaOH pH 7.8, 0.1 mM ZnCl2, 100 mM NaCl, 10 mM CaCl2, T=30° C.

[3] = tested on: Bz PGGXaaXaaXaaHAG-OH / H-XaaXaaXaaAK(DNP)-OH (recognition sequences YRRH, YMKH, RMKH); experiment: Time course of transamidation by A2C8_H39Y/H59Y/E60K/K189D and wild-type trypsin (FIG. 5); assay type: biochemical; details: recognition sequences YRRH, YMKH and RMKH; 10 μM variant or 2.5 nM anionic rat trypsin II
Method: FIG. 5: Time course of the product formation for a transamidation reaction catalyzed by the variant A2C8_H39Y/H59Y/E60K/K189D as well as the wild-type Trypsin in correlation to various peptide substrates. Reaction conditions: 100 μM acyl donor (Bz PGGXaaXaaXaaHAG-OH), 200 μM acyl acceptor (H-XaaXaaXaaAK(DNP)-OH), 10 μM trypsin variant A2C8_H39Y/H59Y/E60K/K189D or 2.5 nM anionic rat trypsin II, 100 mM HEPES/NaOH pH 7.8, 0.1 mM ZnCl2, 100 mM NaCl, 10 mM CaCl2, T=30° C. UPLC analysis: Waters Acquity Ultra Performance LC, C18-column, gradient 5-60% acetonitrile, 5 min, detection at 360 nm.
The three substrates with the highest apparent turnover rate for the aminolysis reaction were then used for investigating the synthesis behavior of variant A2C8_H39Y/H59Y/E60K/K189D. In FIG. 5 the time course of product formation for a transamidation reaction catalyzed by variant A2C8_H39Y/H59Y/E60K/K189D with various peptide substrates is illustrated.

H-RAHAK(DNP)-OH = target: T2, H-RAHAK(DNP)-OH
T2 chain: RAHAK

B1: Trypsiligase I (trypsin variant K60E/N143H/E151H/D189K) (protein)
chain: IVGGYTCQENSVPYQVSLNSGYHFCGGSLINDQWVVSAAHCYESRIQVRLGEHNINVLEGNEQFVNAAKIIKHPNFDRKTLNNDIMLIKLSSPVKLNARVATVALPSSCAPAGTQCLISGWGHTLSSGVNHPDLLQCLDAPLLPQADCEASYPGKITDNMVCVGFLEGGKKSCQGDSGGPVVCNGELQGIVSWGYGCALPDNPGVYTKVCNYVDWIQDTIAAN
KM, acyl acceptor (µM); transamidation with Bz-AAYRHAAG-OH as acyl donor, 0.1 mM ZnCl2 (H-RHAK-OH): 222 µM

B2: Trypsiligase I variant 2G10 (protein)
chain: B1 chain with H23P, A38S, K79D, L81F, Q174E
affinity for the nucleophilic substrate compared to Trypsiligase I [1]: strongly increased affinity for the nucleophilic RH substrate | kcat, HL^app (mkat/mol) [1]: 2.5 mkat/mol | kcat,AL^app, apparent turnover rate for aminolysis (head is formula image MATH:00001) [1]: 65.1 | product yield (%) [1]: 59.3% | kcat, AL^app/kcat, HL^app [1]: 26.0 | Km [1]: 23 µM | increase for the ratio of aminolysis to hydrolysis activity (factor) ([1]; versus Trypsiligase I): 6 | KM, acyl acceptor (µM); transamidation with Bz-AAYRHAAG-OH as acyl donor, 0.1 mM ZnCl2 (H-RHAK-OH): 23 µM | enzyme kinetic analyses (worded result) (H-RHAK-OH): shows a strongly increased affinity for the nucleophilic RH substrate compared to the initial enzyme Trypsiligase I | product yield (%) [2]: 39.6% | kcat, AL^app (mkat/mol) [2]: 16.39 mkat/mol | kcat, AL^app/kcat, HL^app [2]: 3.3 | kcat, HL^app (mkat/mol) [2]: 5.03 mkat/mol

B3: wild-type trypsin: mature anionic rat trypsin II from Rattus norvegicus, SEQ ID NO: 1 (protein)
chain: B1 chain with E43K, H123N, H131E, K171D
modifications: Rat anionic trypsin II
product formation [3]: Nearly no product formation

B4: Trypsiligase I variant 1C11 (protein)
chain: B1 chain with R78V, L81F, S192G, G196S, A198G
affinity for the nucleophilic substrate compared to Trypsiligase I [1]: An improved affinity for the nucleophile could not be shown | kcat, HL^app (mkat/mol) [1]: 0.3 mkat/mol | kcat,AL^app, apparent turnover rate for aminolysis (head is formula image MATH:00001) [1]: 16.0 | product yield (%) [1]: 60.9% | kcat, AL^app/kcat, HL^app [1]: 57.0 | Km [1]: > 5000 µM | aminolysis activity lowered by factor ([1]; versus Trypsiligase I): 3 | increase for the ratio of aminolysis to hydrolysis activity (factor) ([1]; versus Trypsiligase I): 13 | KM, acyl acceptor (µM); transamidation with Bz-AAYRHAAG-OH as acyl donor, 0.1 mM ZnCl2 (H-RHAK-OH): > 5000 µM | enzyme kinetic analyses (worded result) (H-RHAK-OH): An improved affinity for the nucleophile could not be shown for this variant. | product yield (%) [2]: 53.9% | kcat, AL^app (mkat/mol) [2]: 6.24 mkat/mol | kcat, AL^app/kcat, HL^app [2]: 6.4 | kcat, HL^app (mkat/mol) [2]: 0.97 mkat/mol

B5: Trypsiligase II variant A2C8 (protein)
chain: IVGGYTCQENSVPYQVSLNSGHFFCGGSLINDQWVVSAAHCHESRIQVRLGEHNINVLEGNEQFVNAAKIIKHPNFDEDTFNNDIMLIKLSSPVKLNARVATVALPSSCAPAGTQCLISGWGETLSSGVNYPDLLQCLDAPLLPQADCEASYPGKITDNMVCVGFLEGGKKVCAGDSGGPVVCNGELQGIVGWGYQCTLPDNPGVYTKVCNYVDWIQDTIAAN
KM, acyl acceptor (µM); zinc ions (100 µM): no; transamidation with 250 µM Bz-PGGYRAHAG-OH as acyl donor (H-RAHAK(DNP)-OH): 17.6 µM | fold improvement of KM of the nucleophilic peptide against Trypsiligase II in the absence of zinc ions (H-RAHAK(DNP)-OH): by a factor of 8 and 92 in the presence or absence of zinc ions, respectively | fold improvement of KM of the nucleophilic peptide against Trypsiligase II in the presence of zinc ions (H-RAHAK(DNP)-OH): by a factor of 8 and 92 in the presence or absence of zinc ions, respectively
